Assay results as given in IntAct's records for PubMed 31585087.

B1: GRB2-associated-binding protein 1 (Homo sapiens), Q13480 (parent)
chain: MSGGEVVCSGWLRKSPPEKKLKRYAWKRRWFVLRSGRLTGDPDVLEYYKNDHAKKPIRIIDLNLCQQVDAGLTFNKKEFENSYIFDINTIDRIFYLVADSEEEMNKWVRCICDICGFNPTEEDPVKPPGSSLQAPADLPLAINTAPPSTQADSSSATLPPPYQLINVPPHLETLGIQEDPQDYLLLINCQSKKPEPTRTHADSAKSTSSETDCNDNVPSHKNPASSQSKHGMNGFFQQQMIYDSPPSRAPSASVDSSLYNLPRSYSHDVLPKVSPSSTEADGELYVFNTPSGTSSVETQMRHVSISYDIPPTPGNTYQIPRTFPEGTLGQTSKLDTIPDIPPPRPPKPHPAHDRSPVETCSIPRTASDTDSSYCIPTAGMSPSRSNTISTVDLNKLRKDASSQDCYDIPRAFPSDRSSSLEGFHNHFKVKNVLTVGSVSSEELDENYVPMNPNSPPRQHSSSFTEPIQEANYVPMTPGTFDFSSFGMQVPPPAHMGFRSSPKTPPRRPVPVADCEPPPVDRNLKPDRKVKPAPLEIKPLPEWEELQAPVRSPITRSFARDSSRFPMSPRPDSVHSTTSSSDSHDSEENYVPMNPNLSSEDPNLFGSNSLDGGSSPMIKPKGDKQVEYLDLDLDSGKSTPPRKQKSSGSGSSVADERVDYVVVDQQKTLALKSTREAWTDGRQSTESETPAKSVK
partner: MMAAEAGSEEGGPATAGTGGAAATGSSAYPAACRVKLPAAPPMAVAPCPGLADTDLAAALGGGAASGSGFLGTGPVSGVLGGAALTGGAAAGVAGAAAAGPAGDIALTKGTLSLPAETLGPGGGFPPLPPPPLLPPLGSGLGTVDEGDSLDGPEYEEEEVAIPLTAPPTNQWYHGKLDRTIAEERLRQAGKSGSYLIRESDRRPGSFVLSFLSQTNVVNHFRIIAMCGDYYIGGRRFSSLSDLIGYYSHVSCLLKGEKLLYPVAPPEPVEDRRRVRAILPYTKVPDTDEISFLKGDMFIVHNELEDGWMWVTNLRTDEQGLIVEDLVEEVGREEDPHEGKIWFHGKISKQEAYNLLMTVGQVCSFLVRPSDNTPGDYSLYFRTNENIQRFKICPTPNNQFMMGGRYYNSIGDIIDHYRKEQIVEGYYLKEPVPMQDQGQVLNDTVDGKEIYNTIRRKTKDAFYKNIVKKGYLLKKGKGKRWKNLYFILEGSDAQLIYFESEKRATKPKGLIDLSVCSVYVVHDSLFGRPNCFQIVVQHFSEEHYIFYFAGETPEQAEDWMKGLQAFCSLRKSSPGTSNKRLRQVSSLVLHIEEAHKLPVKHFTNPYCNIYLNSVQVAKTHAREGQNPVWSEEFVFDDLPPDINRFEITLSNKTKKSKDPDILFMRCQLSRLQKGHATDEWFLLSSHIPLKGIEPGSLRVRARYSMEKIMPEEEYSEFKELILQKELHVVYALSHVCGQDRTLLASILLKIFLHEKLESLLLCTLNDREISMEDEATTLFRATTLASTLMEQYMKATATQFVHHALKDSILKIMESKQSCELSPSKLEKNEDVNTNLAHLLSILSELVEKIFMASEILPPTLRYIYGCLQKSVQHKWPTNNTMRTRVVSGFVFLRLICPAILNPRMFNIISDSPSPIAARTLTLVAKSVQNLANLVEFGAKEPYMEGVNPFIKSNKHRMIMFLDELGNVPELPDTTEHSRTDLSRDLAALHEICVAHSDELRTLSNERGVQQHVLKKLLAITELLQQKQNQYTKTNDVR

Variants of: B1
Details: with rasa1_rat Rasa1, P50904

Row | Variant | effect of a mutation on the interaction
1 | P320S | disrupting interaction strength
